Experiment [1] addresses T1, SARS-COV-2 RBD (SARS-COV-2, UniProt P0DTC2 319-539).
T1 construct: also called WT RBD
As to the kind of experiment: ELISA, RBD coated on plate. (An ELISA detects its analyte on a solid surface through an enzyme-linked reagent.)

Experiment [2] addresses SARS-COV-2 RBD (SARS-COV-2, UniProt P0DTC2 319-539). As to the kind of experiment: ELISA, RBD coated.

B1: C945 (antibody, V domains shown)
VH: QVQLVQSGAEVKKPGASVRISCKASGYTFTNYYMHWVRQAPGQGLEWMGIINPSGGSTTYAPKFQARVTMTRDTSTSTVYMELSSLRSDDTAVYYCARDYVLVPARSGMDVWGQGTTVTVS
VL: EIVLTQSPATLSLSPGERATLSCRASQSVSSYLAWYQQKPGQAPRLLIYDASNRATGIPARFSGSGSGTDFTLTISSLEPEDFAIYYCQQRSNWPYTFGQGTKLEIK
The EC50 is the concentration at which the effect is half-maximal. A high value points to lower potency in that assay. In the case of B1, the EC50 with SARS-COV-2 RBD [1] amounted to 3.13 ng/mL.

B2: C946 (antibody, V domains shown)
VH: QVQLVQSGAEVKKPGASVKVSCKASGYTFTNYYIHWVRQAPGQGLEWMGIINPDGDSTSYVQKFQGRVTMTRDTSTSTVYMELSSLRSEDTAVYYCARDLVFVPATSAMDVWGKGTTVTVSS
VL: EIVLTQSPATLSLSPGERATLSCRASQSVSSYLAWYQQKPGQAPRLLIYDASNRATGIPARFSGSGSGTDFTLTISSLEPEDFAVYYCQQRSNWLFTFGPGTKVDIK
In turn, B2 came in with an EC50 in the experiment with SARS-COV-2 RBD [1] of 3.82 ng/mL.

B3: C941 (antibody, V domains shown)
VH: QVQLVQSGAEVKKPGSSVKVSCKASGGTSRSYPISWVRQAPGQGLEWMGRIIPIVGTANYAQRFQGRVTITADESTGTAYMELSSLRSEDTAVYYCARNRGYSDYGSVYYFDYWGQGTLVTVSS
VL: QSVLTQPPSVSGAPGQRVTISCTGSSSNIGAGYDVHWYQQLPGAAPKLLIYRNINRPSGVPDRFSGSKSGTSASLAITGLQADDEADYYCQSYDSSLSGSVFGGGTKLTV
B3 came in with an EC50 with SARS-COV-2 RBD [1] of 1.92 ng/mL.

B4: C943 (antibody, V domains shown)
VH: QVQLVESGGGVVQPGRSLRLSCAASGFPFSSFGMHWVRQAPGRGLEWVALILYDGDNKYYADSVKGRFTISRDNSKNTLYLQMNSLRAEDTAVYYCAKDIGGGSSPPFFDYWGQGTLVTVSS
VL: SYELTQAPSVSLAPGKTARITCGENNIGSKSVHWYQQKPGQAPVLVIYYDSDRPSGIPERFSGSNSGNTATLTISRVEAGDEADYYCQVWDSSSDHVMFGGGTKLTVL
In turn, B4 had a 50% effective concentration (EC50) with SARS-COV-2 RBD [1] of 2.59 ng/mL. The EC50 values of the last two molecules are within 1.5-fold of each other.

B5: C934 (antibody, V domains shown)
VH: QVQLVQSGAEVKKPGASVKVSCKASGYTFTDYYIHWVRQAPGQGLEWMGWINPNSGGTNYAQKFQGRVTMTRDTSISTAYMDLSRLRSDDTAVYYCARDVIITMGRGVVFRMDVWGQGTTVTVSS
VL: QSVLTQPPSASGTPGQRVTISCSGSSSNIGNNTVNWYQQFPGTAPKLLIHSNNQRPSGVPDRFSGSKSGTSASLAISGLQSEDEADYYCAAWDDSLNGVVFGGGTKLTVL
For the molecule B5, in the experiment with SARS-COV-2 RBD [1], a half-maximal response (EC50) required 0.95 ng/mL.

B6: C940 (antibody, V domains shown)
VH: QVQLQESGSGLVKPSQTLSLTCAVSGGSASSGGYSWSWIRQPPGKGLEWIGYIYHSGSTYYNPSLKSRVTISLDRTKKQFSLKLSSVTAADTAVYYCARFCLSGSHYLFAFDIWGPGTMVTVSS
VL: QSALTQPASVSGSPGQSITISCTATSSDVGGYNFVSWYQQYPGKVPKLLIYDVGNRPSGVSNRFSGSKSGNTASLTISGLQAEDEADYYCSSYTNSSTFFGGGTKLTVL
In the case of B6, the midpoint of the response with SARS-COV-2 RBD [1], the EC50, lay at 1.8 ng/mL. Compared with the last molecule, the EC50 is about 1.9-fold higher.

B7: C936 (antibody, V domains shown)
VH: EVQLVESGGGLIQPGGSLRLSCAASGFTVSSNYMSWVRQAPGKGLEWVSVIYSGGSTFYADSVKGRFTISRDNSKNTLYLQMNSLRAEDTAVYYCARDLGTGLFDYWGQGTLVTVSS
VL: DIQLTQSPSFLSASVGDRVTITCRASQGISSYLAWYQQKPGKAPKLLIYAASTLQSGVPSRFSGSGSGTEFTLTISSLQPEDFATYYCQQLDSYPPGTFGPGTKVDIK
In the case of B7, a half-maximal response with SARS-COV-2 RBD [1] (EC50) required 1.56 ng/mL.

B8: C937 (antibody, V domains shown)
VH: EVQLVESGGGLIQPGGSLRLSCAASELTVSSNYMSWVRQAPGKGLEWVSVIYPGGSTFYADSVKGRFTISRDNSKNTLYLQMNSLRAEDTAVYYCARDLGTGLFDYWGQGTLVTVSS
VL: DIQLTQSPSFLSASVGDRVTITCRASQGISSYLAWYQQKPGKAPKLLIYAASTLQSGVPSRFSGSGSGTEFTLTISSLQPEDFATYFCQLLNSNPPGTFGPGTKVDIK
Molecule B8 gave a concentration giving a half-maximal response (EC50) with SARS-COV-2 RBD [1] of 0.97 ng/mL.

B9: C942 (antibody, V domains shown)
VH: QVQLVESGGGVVQPGRSLRLSCAASGFTFSSYVMHWVRQAPGKGLEWVAIISSDGNTKYYADSVKGRFTISRDNSKNTLYLQMNSVRTDDTAVYYCARDGTTMTPTDLLTDWGQGTLVTVSS
VL: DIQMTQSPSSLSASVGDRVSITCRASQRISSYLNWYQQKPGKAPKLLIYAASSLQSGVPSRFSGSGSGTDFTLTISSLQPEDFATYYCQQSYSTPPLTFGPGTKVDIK
Take B9: the half-maximal effective concentration (EC50) with SARS-COV-2 RBD [1] came to 2.13 ng/mL.

B10: C932 (antibody, V domains shown)
VH: QVQLVESGGSVVQPGKSLRLSCAGSGFAFSTYGMHWVRQAPGKGLEWVAVISSDGGNKYYADSVKGRFTISRDNYENTLYLQMNSLGAEDTAVYYCAKVALRGVFISLYYGMDVWGQGTTVTVSS
VL: SYELTQPPSVSVTPGQTASITCSGDKLGDKYACWFLQKPGQSPLLVIYQDTKRPSGIPDRLSGSKSGNTATLTISGTQAMDEADYYCQTWDSSAVVFGGGTKLTV
B10: the EC50 in the experiment with SARS-COV-2 RBD [1] was 3.57 ng/mL. Against the preceding molecule, the EC50 is about 1.7-fold higher.

B11: C045 (antibody, V domains shown)
VH: EVQLVESGGGLVQPGGSLRLSCAASGFTFSTYSMNWVRQAPGKGLEWVSYISSSSSTIHYADSVKGRFTISRDNAKNSLYLQMNSLRDEDTAVYYCAREAHDGALTDYGDYLNWFDPWGQGTLVTVSS
VL: SYELTQPPSVSVAPGKTARITCGGTNIGSKNVHWYQQKPGQAPVLVIYYDNDRPSGIPERFSGSNSGNTATLTISRVEAGDEADYYCQVWDTTSDHFYWVFGGGTKLTVL
In the experiment with SARS-COV-2 RBD [2], B11 yielded a concentration giving a half-maximal response (EC50) of 7 ng/mL.

B12: C931 (antibody, V domains shown)
VH: QVQLVESGGGVVQPGRSLRLSCAASGFSFSTYGMHWVRQAPGKGLEWVAVISFDGSQKYYGDSVKGRFTISRDNPKNTLDLQMNSLRAEDTAVYYCAKVVVRGVIISLYYGMDVWGQGTTVTVSS
VL: not shown
B12 had an EC50 with SARS-COV-2 RBD [1] of 2.57 ng/mL.

B13: C050 (antibody, V domains shown)
VH: EVQLVESGGGLFQPGGSLRLSCAASGFSVRNNYVSWVRQAPGKGLEWVSVIYSGGTTYYADSVKGRFTISRDISENTLYLQMNSLRAEDTAVYYCAREGDVEGLHDFWSGYSRDRYYFDYWGQGTLVTVSS
VL: QSALTQPASVSGSPGQSIIISCTGTSGDIGGYNYVSWYQQHPGKAPKLMIYDVSFRPSGVSNRFSGSKSDNTASLTISGLQAEDEADYYCSSFTGNNTRVFGTGTKVTVL
In the case of B13, the response with SARS-COV-2 RBD [2] was half-maximal at 193 ng/mL (EC50).

B14: C944 (antibody, V domains shown)
VH: QVQLVESGGGVVQPGRSLRLSCAASGFTFSSYGMHWVRQAPGKGLEWVAVISYDGSYKYYADSVKGRFTISRDNSKNTLYLQMNSLRAEDTAVYYCAKGSGSQLYYYYGMDVWGQGTTVTVSS
VL: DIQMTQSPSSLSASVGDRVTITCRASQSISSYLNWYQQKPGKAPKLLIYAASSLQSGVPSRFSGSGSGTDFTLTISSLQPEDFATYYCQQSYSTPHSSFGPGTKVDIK
Molecule B14 showed a concentration for a half-maximal effect (EC50) with SARS-COV-2 RBD [1] of 1.71 ng/mL.

B15: C939 (antibody, V domains shown)
VH: QVQLVESGGGVVQPGRSLRLSCAASGFTFSSYAMHWVRQAPGKGLESVALISHDGSNKYHADSVKGRLTISRDTSKNTLYLQMDSLRPEDTAVYYCASGLLWFETAGGSGAPDYGMAVWGQGTTVTVSS
VL: DIQMTQSPSSLSASVGDRVTITCRASQSISTYLNWYQQKPGRAPKFLIYAASSLQSGVPSRFSGSGSGTDFTLIISGLQPEDFATYFCQQSYNTPLTFGGGTKVEIK
In turn, B15 came in with an EC50 in the experiment with SARS-COV-2 RBD [1] of 3.62 ng/mL.

B16: C926 (antibody, V domains shown)
VH: QVQLVESGGGVVQPGRSLRLSCAASGFGLITYSMHWVRQAPGKGLEWVGLISFDGNTTYYADSVRGRFTISRDNLANILYLQMNSLRPDDTALYYCARDKRGVIRGLLNFWGQGSLVTVSS
VL: DIVMTQSPDSLAVSLGERATINCKSSQSLLPSSNSNNYLAWYQQKSGQPPNLLIYWASTRESGVPDRFSGSGSETDFSLTISNLQAEDVAVYYCQQYYNTPHTFGGGTKVEI
Molecule B16 showed an EC50 with SARS-COV-2 RBD [1] of 4.72 ng/mL.

B17: C935 (antibody, V domains shown)
VH: QVQLVESGGGVVQPGRSLRLSCAATGFTFSSYGMHWVRQAPGKGLEWVALIWYDGSNQYYVDSVKGRFTISRDNSKKTLYLQMNSLRVEDTAVYYCARDFSNSDMVTLSDAFDIWGQGTMVTVSS
VL: DIQLTQSPSFLSASVGDRVTIACRASQGISSYSSYLAWYQQKPGKAPKLLIYAASTLQSGVPSRFSGSGSGTEFTLTISSLQPEDFATYYCQQLNSYPLFTFGPGTKVDIK
For B17, the response with SARS-COV-2 RBD [1] was half-maximal at 2.86 ng/mL (EC50).

B18: C949 (antibody, V domains shown)
VH: QVQLQESGPGLVKPLQTLSLTCTVSGGSISNGDYYWSWIRQSPGKGLEWIGNIFYSGATYFNPSLKSRVTLSVDTSKNQFSLKLSSVTAADTAVYYCARVVRVLPAASVDCWGQGTLVTVSS
VL: QSALTQPRSVSGSPGQSVPISCTGTSSDVGGYDYVSWYQQHPGKAPKLIIYDVSERPSGVPDRFSGSKSGNTASLTISGLQAEDEATYYCCSYAGTSVMFGGGTKLTVL
In turn, B18 returned an EC50 in the experiment with SARS-COV-2 RBD [1] of 2.33 ng/mL.

B19: C938 (antibody, V domains shown)
VH: QVQLVESGGGVVQPGRSLRLSCAASGFTFRSHAMHWVRQAPGKGLEWVAIISSDGFNKYYADSVKGRFTISRDNSKNTLYVHMNSLRVEDTAIYYCASGLLWFETREISGAPDYGMAVWGQGATVTVSS
VL: DIQMTQSPSSLSASVGDRVTITCRASQNISNFLNWYQQKPGKAPKLLIYAASSLQSGVPSRYSGSGSGTDFTLTISSLQAEDFATYYCQQSYSTPLTFGGGTKVEIK
Take B19: in the experiment with SARS-COV-2 RBD [1], the response was half-maximal at 2.63 ng/mL (EC50).

B20: C948 (antibody, V domains shown)
VH: EVQLVESGGGLVQPGGSLRLSCAASGFTFSRYDMHWVRQATGKGLEWVSIIGTAGDTYYPGSVKGRFTISRDNAKNSLFLQMNSLRAGDTAVYYCARANYDSSGYHNWFDPWGQGTLVTVSS
VL: DIQMTQSPSSLSASIGDRVTITCRASQNINSYLNWYQQKPGKAPKLLIYAASSLQSGVPSRFSGSGSGTDFTLTINSLQPEDFATYYCQQSYSMPSWTFGQGTKVEI
Turning to B20, the EC50 in the experiment with SARS-COV-2 RBD [1] worked out at 3.26 ng/mL. The EC50 values of the last two molecules are within 1.5-fold of each other.

B21: C913 (antibody, V domains shown)
VH: EVQLVESGGVVVQPGGSLRLSCAASGFTFDDYSMHWVRQVPGKGLEWIAVIFWDGTSTYYADSVKGRFTISRDNSKKSLYLQMNSLRSEDTALYYCAKDSEDCSSTSCYVDHWGQGTLVTVSS
VL: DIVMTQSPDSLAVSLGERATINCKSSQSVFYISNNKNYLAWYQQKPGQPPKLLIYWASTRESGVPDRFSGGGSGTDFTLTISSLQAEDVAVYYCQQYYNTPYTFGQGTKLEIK
Turning to B21, the EC50 with SARS-COV-2 RBD [1] amounted to 2.58 ng/mL.

B22: C947 (antibody, V domains shown)
VH: QVQLQESGPGLVRPSGTLSLTCAVTGGSISSSDCWSWVRQPPGKGLEWIGEICHGRTSNYNPSLKSPVSISVDKSKNQFSLILSSVTAADKAVYYCARSSRFLPPLPDAFDLWGQGTMVTVSS
VL: QSVLTQPPSVSGAPGQRVTISCTGSSSNIGAGYDVHWYKQLPGTAPKLLIYGNTNRPSGVPGRFSGSKSGTSASLAITGLQAEDEADYFCQSYDTRLSVVFGGGTKLT
In turn, B22 had an EC50 with SARS-COV-2 RBD [1] of 2.08 ng/mL. The EC50 values of the last two molecules are within 1.5-fold of each other.

B23: C951 (antibody, V domains shown)
VH: QVQLQESGPRLVKPSGTLSLTCAVSGGSISTTNWWSWVRQPPGKGLEWIGEIHHSGNTNYNPSLKSRVTISVDRSKNQFSLKLSSVTAADTAVYFCARDGGRPGDPFDIWGQGTMVTVSS
VL: QSALTQPASVSGSPGQSITISCTGTSSDVGGYNYVSWYQQHPGKAPNLMIYDVSDRPSGVSNRFSGSKSGNTASLTISGLQAEDEADYYCNSFTSNSTRVFGTGTKVTV
The molecule B23 displayed an EC50 in the experiment with SARS-COV-2 RBD [1] of 0.81 ng/mL.

Values taken from patent US20240218057A1 (ROCKEFELLER UNIVERSITY, published 2024).
